Experimental data as given in publication PMC9307627, “Targeting loop3 of sclerostin preserves its cardiovascular protective action and promotes bone formation”.

T1: sclerostin loop3 (WT) (human, UniProt Q9BQB4 135-164)
T1 chain: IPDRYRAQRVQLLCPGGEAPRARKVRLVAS

T2: sclerostin loop3m (human, UniProt Q9BQB4 135-164, R138A;Y139A;R140A;Q142A;R143A;V144A;G151A;E152A;R157A;K158A;V159A)
T2 chain: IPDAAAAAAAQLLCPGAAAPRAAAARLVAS

T3: sclerostin loop2 (human, UniProt Q9BQB4 110-133)
T3 chain: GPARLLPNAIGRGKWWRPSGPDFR

T4: sclerostin loop1 (human, UniProt Q9BQB4 81-104)
T4 chain: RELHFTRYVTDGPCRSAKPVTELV


What was measured:
Assay in all cases: ELONA; ELONA: 160 ng protein coated in PBS; biotinylated aptamer 45 min at RT; wash in PBS pH 7.4, 1 mM MgCl2, 5 mM imidazole, 0.05% Tween 20; streptavidin-HRP/TMB, hyperbolic fit
sclerostin loop3 (WT) = target: T1, sclerostin loop3 (WT); settings: label: biotin
sclerostin loop3m = target: T2, sclerostin loop3m; settings: label: biotin
[1] = target: full-length human sclerostin (FL hSOST) (human, UniProt Q9BQB4 25-213); settings: protein: recombinant; tags: His6; label: biotin
Chain of full-length human sclerostin (FL hSOST) (Q9BQB4 25-213): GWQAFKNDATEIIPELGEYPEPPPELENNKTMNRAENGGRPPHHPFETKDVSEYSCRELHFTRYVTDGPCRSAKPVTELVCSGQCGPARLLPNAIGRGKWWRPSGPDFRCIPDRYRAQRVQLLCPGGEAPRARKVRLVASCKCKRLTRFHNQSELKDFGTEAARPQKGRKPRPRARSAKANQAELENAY

sclerostin loop2 = target: T3, sclerostin loop2; settings: label: biotin
sclerostin loop1 = target: T4, sclerostin loop1; settings: label: biotin

Binder | Kd [1] [nM] | other results
CGGGGTGTGGGTTCGTCGTTAGCTTGATTTGGCAGCTGCC (ssDNA) [aptscl56] | 43.1 | binding result (sclerostin loop3 (WT)): binds; binding result (sclerostin loop3m): binds; binding result (sclerostin loop2): no binding; binding result (sclerostin loop1): no binding
TGGAAGGGTGGGGGCGGGGGGTCCTCGCCTCGAACGTACG (ssDNA) [aptamer candidate 6] | 4.2 | 
CGGGGTGTGGGTAAATCGTTAGAAAGATTAAACAGCTGCC (ssDNA) [aptscl56m] |  | binding result [1]: no binding
TGGGGGTAGGGGGACCCTGGCTAGTTAGTCACCGTTTCGA (ssDNA) [aptamer candidate 9] | 3.4 | 
GAGGGGGCCAACTATGCTTAGTGGGGGGGTTGACCGTATC (ssDNA) [aptamer candidate 15] | 4 | 
GGGTGGATTAAGGGGGCCCCGTCTGTAGGCGATTGGCGAA (ssDNA) [aptamer candidate 46] | 45.6 | 
TGGGGGTAGGGGGTCCTTGGCTACGGTGATTCGGATGTGA (ssDNA) [aptamer candidate 51] | 62.2 | 
CCCAGACGAGACACCTCATGCTTTTCCCCGGGGGAGGGGTAT (ssDNA) [aptamer candidate 132] | 42.2 | 
